# Biological target: the molecule itself
# Assay: self-rotation function of X-ray crystallographic data; crystals grown at low pH (0.1 M sodium citrate pH 3.5, 50 mM magnesium sulphate, 50 mM cobalt chloride, 0.1 M NaCl, 13% PEG 4000, 0.9% beta-octylmaltoside); data to 9.0 A, spacegroup P2(1); structure not phased; POLARRFN self-rotation function, data to 12 A
protein,measurement,value
"Methanocaldococcus jannaschii CorA channel (natural protein, CorA magnesium channel of Methanocaldococcus jannaschii (MjCorA); holds the N-terminal, conical and trans-membrane domains; also called MjCorA; source: final buffer 200 mM NaCl, 20 mM Tris/HCl pH8, 0.04% DDM) MITVIAIAKDGSIVEPKLDEISFEDYRLIWIDCYDPKDEELYKLSKKIGISVSDLQIGLDEQEIPRVEEDEDFYLIIYKAPLFEEDITTTSLGIYIKNNLLLTIHSDKIKAIGRLHKLISTKKPRIVFERGIGFLLYHILNEITRSYSRILMNLEDELEELEDKLLAGYDREVMEKILGLRKTLVYFHKSLIANRDVLVLLKRKYLPITTKEDRENFEDLYYDTLQLIDMSATYREVLTSMMDITLSLENIKMNQIMKILTMVTTIFAVPMWITGIYGMNFSYLPLANNPQGFWLVMALMVVIIMIFVYIFRRSGWI",stoichiometry N,5
